Target: His6-ybbR-alpha-SMA, recombinant, assembled into filaments (human, UniProt P62736 1-377)
Assay: co-sedimentation; actin co-pelleting (spin-down) assay: 4 µM α-SMA pre-assembled into filaments (with Rhodamine muscle actin), 0.4 µM PLCG1 and 1 µM myosin in 50 mM HEPES pH 7.4, 150 mM NaCl, 1 mM TCEP, 2 h at room temperature; high-speed centrifugation; supernatant and pellet on SDS-PAGE
Conditions: both partners purified

Binder | binding result
Rat PLCG1 (aa 21-1215) WT, recombinant (enzyme, UniProt P10686 21-1215, looked up, Phospholipase C gamma 1, rat, aa 21-1215; PDB 6PBC (cited) is the structure of PLCG1 from that work; also called wild-type PLCG1; PLCG1 WT; source: expressed and purified as previous published protocol (Hajicek et al, 2019)) EVLHLCRSLEVGTVMTLFYSKKSQRPERKTFQVKLETRQITWSRGADKIEGSIDIREIKEIRPGKTSRDFDRYQEDPAFRPDQSHCFVILYGMEFRLKTLSLQATSEDEVNMWIKGLTWLMEDTLQAATPLQIERWLRKQFYSVDRNREDRISAKDLKNMLSQVNYRVPNMRFLRERLTDFEQRSGDITYGQFAQLYRSLMYSAQKTMDLPFLETNTLRTGERPELCQVSLSEFQQFLLEYQGELWAVDRLQVQEFMLSFLRDPLREIEEPYFFLDELVTFLFSKENSVWNSQLDAVCPETMNNPLSHYWISSSHNTYLTGDQFSSESSLEAYARCLRMGCRCIELDCWDGPDGMPVIYHGHTLTTKIKFSDVLHTIKEHAFVASEYPVILSIEDHCSIAQQRNMAQHFRKVLGDTLLTKPVDIAADGLPSPNQLKRKILIKHKKLAEGSAYEEVPTSVMYSENDISNSIKNGILYLEDPVNHEWYPHYFVLTSSKIYYSEETSSDQGNEDEEEPKEASGSTELHSSEKWFHGKLGAGRDGRHIAERLLTEYCIETGAPDGSFLVRESETFVGDYTLSFWRNGKVQHCRIHSRQDAGTPKFFLTDNLVFDSLYDLITHYQQVPLRCNEFEMRLSEPVPQTNAHESKEWYHASLTRAQAEHMLMRVPRDGAFLVRKRNEPNSYAISFRAEGKIKHCRVQQEGQTVMLGNSEFDSLVDLISYYEKHPLYRKMKLRYPINEEALEKIGTAEPDYGALYEGRNPGFYVEANPMPTFKCAVKALFDYKAQREDELTFTKSAIIQNVEKQDGGWWRGDYGGKKQLWFPSNYVEEMINPAILEPEREHLDENSPLGDLLRGVLDVPACQIAIRPEGKNNRLFVFSISMPSVAQWSLDVAADSQEELQDWVKKIREVAQTADARLTEGKMMERRKKIALELSELVVYCRPVPFDEEKIGTERACYRDMSSFPETKAEKYVNKAKGKKFLQYNRLQLSRIYPKGQRLDSSNYDPLPMWICGSQLVALNFQTPDKPMQMNQALFMAGGHCGYVLQPSTMRDEAFDPFDKSSLRGLEPCVICIEVLGARHLPKNGRGIVCPFVEIEVAGAEYDSTKQKTEFVVDNGLNPVWPAKPFHFQISNPEFAFLRFVVYEEDMFSDQNFLAQATFPVKGLKTGYRAVPLKNNYSEDLELASLLIKIDIFPAK | binds
Rat PLCG1 (aa 21-1215) D1165H, recombinant (enzyme, UniProt P10686 21-1215, looked up, Phospholipase C gamma 1, rat, aa 21-1215, with the human leukemia/lymphoma-associated mutation D1165H; also called recombinant PLCG1 D1165H protein; source: expressed and purified as previous published protocol (Hajicek et al, 2019)) EVLHLCRSLEVGTVMTLFYSKKSQRPERKTFQVKLETRQITWSRGADKIEGSIDIREIKEIRPGKTSRDFDRYQEDPAFRPDQSHCFVILYGMEFRLKTLSLQATSEDEVNMWIKGLTWLMEDTLQAATPLQIERWLRKQFYSVDRNREDRISAKDLKNMLSQVNYRVPNMRFLRERLTDFEQRSGDITYGQFAQLYRSLMYSAQKTMDLPFLETNTLRTGERPELCQVSLSEFQQFLLEYQGELWAVDRLQVQEFMLSFLRDPLREIEEPYFFLDELVTFLFSKENSVWNSQLDAVCPETMNNPLSHYWISSSHNTYLTGDQFSSESSLEAYARCLRMGCRCIELDCWDGPDGMPVIYHGHTLTTKIKFSDVLHTIKEHAFVASEYPVILSIEDHCSIAQQRNMAQHFRKVLGDTLLTKPVDIAADGLPSPNQLKRKILIKHKKLAEGSAYEEVPTSVMYSENDISNSIKNGILYLEDPVNHEWYPHYFVLTSSKIYYSEETSSDQGNEDEEEPKEASGSTELHSSEKWFHGKLGAGRDGRHIAERLLTEYCIETGAPDGSFLVRESETFVGDYTLSFWRNGKVQHCRIHSRQDAGTPKFFLTDNLVFDSLYDLITHYQQVPLRCNEFEMRLSEPVPQTNAHESKEWYHASLTRAQAEHMLMRVPRDGAFLVRKRNEPNSYAISFRAEGKIKHCRVQQEGQTVMLGNSEFDSLVDLISYYEKHPLYRKMKLRYPINEEALEKIGTAEPDYGALYEGRNPGFYVEANPMPTFKCAVKALFDYKAQREDELTFTKSAIIQNVEKQDGGWWRGDYGGKKQLWFPSNYVEEMINPAILEPEREHLDENSPLGDLLRGVLDVPACQIAIRPEGKNNRLFVFSISMPSVAQWSLDVAADSQEELQDWVKKIREVAQTADARLTEGKMMERRKKIALELSELVVYCRPVPFDEEKIGTERACYRDMSSFPETKAEKYVNKAKGKKFLQYNRLQLSRIYPKGQRLDSSNYDPLPMWICGSQLVALNFQTPDKPMQMNQALFMAGGHCGYVLQPSTMRDEAFDPFDKSSLRGLEPCVICIEVLGARHLPKNGRGIVCPFVEIEVAGAEYDSTKQKTEFVVDNGLNPVWPAKPFHFQISNPEFAFLRFVVYEEHMFSDQNFLAQATFPVKGLKTGYRAVPLKNNYSEDLELASLLIKIDIFPAK | binds

— paper PMC12457681, “Hyperactive PLCG1 induces cell-autonomous and bystander T cell activation and drug resistance” (EMBO Reports, 2025)
